Experimental data from the supplement of paper PMC11780869.

Tested on: Bacillus subtilis
Assay: cleaved RNA product abundance (RNA/gDNA barcode ratio) relative to median wild-type variant (ratio to wild type); higher = more accumulation of the downstream cleavage product
Conditions: cleavage site: cggR-gapA (positions -7 to +36 mutated)
Procedure, shortened: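 Cleaved product abundance is expressed as the RNA:gDNA barcode ratio per construct, scaled to the median construct carrying the unmutated site. The constructs were barcoded, mutagenized RNase Y cleavage-site windows in truncated aprE or tetM reporter mRNAs integrated into the B. subtilis chromosome. Cultures grew in LB at 37°C from OD600 0.0003 to 0.3 before cleaved RNA was gel-selected and barcode-sequenced.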

[1] = experiment (reporter, strain, medium): exp 4a: truncated aprE reporter, strain BJT201 with 2% xylose (RNase J1 expressed)
[2] = experiment (reporter, strain, medium): exp 2b: truncated aprE reporter, strain BJT200

ACAGACGAAGGAGCCGCAAAGAAGTTATTATCGGATGAATAATCCCTCAATATAAATATCTCTCACTTATTTAAA
cleaved RNA product abundance [1]: 0.178

ACAGACGAAGGAGCCGCAAAGAAGTTATTATGAGATGAATAATCCCTCAATATAAATATCTCTCACTTATTTAAA
cleaved RNA product abundance [2]: 0.0958 | cleaved RNA product abundance [1]: 0.147

ACAGACGAAGGAGCCGCAAAGAAGTTATTATGGAATGAATAATCCCTCAATATAAATATCTCTCACTTATTTAAA
cleaved RNA product abundance [1]: 0.105

ACAGACGAAGGAGCCGCAAAGAAGTTATTATGGCATGAATAATCCCTCAATATAAATATCTCTCACTTATTTAAA
cleaved RNA product abundance [2]: 0.0973 | cleaved RNA product abundance [1]: 0.184

ACAGACGAAGGAGCCGCAAAGAAGTTATTATGGGAAGAATAATCCCTCAATATAAATATCTCTCACTTATTTAAA
cleaved RNA product abundance [2]: 0.159 | cleaved RNA product abundance [1]: 0.246

ACAGACGAAGGAGCCGCAAAGAAGTTATTATGGGACGAATAATCCCTCAATATAAATATCTCTCACTTATTTAAA
cleaved RNA product abundance [1]: 0.174

ACAGACGAAGGAGCCGCAAAGAAGTTATTATGGGATAAATAATCCCTCAATATAAATATCTCTCACTTATTTAAA
cleaved RNA product abundance [2]: 0.31 | cleaved RNA product abundance [1]: 0.362

ACAGACGAAGGAGCCGCAAAGAAGTTATTATGGGATCAATAATCCCTCAATATAAATATCTCTCACTTATTTAAA
cleaved RNA product abundance [2]: 0.23

ACAGACGAAGGAGCCGCAAAGAAGTTATTATGGGATGAAAAATCCCTCAATATAAATATCTCTCACTTATTTAAA
cleaved RNA product abundance [1]: 0.334

ACAGACGAAGGAGCCGCAAAGAAGTTATTATGGGATGAATAAACCCTCAATATAAATATCTCTCACTTATTTAAA
cleaved RNA product abundance [1]: 0.21

ACAGACGAAGGAGCCGCAAAGAAGTTATTATGGGATGAATAACCCCTCAATATAAATATCTCTCACTTATTTAAA
cleaved RNA product abundance [1]: 0.194

ACAGACGAAGGAGCCGCAAAGAAGTTATTATGGGATGAATAATCCATCAATATAAATATCTCTCACTTATTTAAA
cleaved RNA product abundance [1]: 0.236

ACAGACGAAGGAGCCGCAAAGAAGTTATTATGGGATGAATAATCCCTAAATATAAATATCTCTCACTTATTTAAA
cleaved RNA product abundance [1]: 0.514

ACAGACGAAGGAGCCGCAAAGAAGTTATTATGGGATGAATAATCCCTCAAAATAAATATCTCTCACTTATTTAAA
cleaved RNA product abundance [1]: 0.277

ACAGACGAAGGAGCCGCAAAGAAGTTATTATGGGATGAATAATCCCTCAACATAAATATCTCTCACTTATTTAAA
cleaved RNA product abundance [1]: 0.361

ACAGACGAAGGAGCCGCAAAGAAGTTATTATGGGATGAATAATCCCTCAATATAAAAATCTCTCACTTATTTAAA
cleaved RNA product abundance [2]: 0.279 | cleaved RNA product abundance [1]: 0.391

ACAGACGAAGGAGCCGCAAAGAAGTTATTATGGGATGAATAATCCCTCAATATAAATACCTCTCACTTATTTAAA
cleaved RNA product abundance [2]: 0.348 | cleaved RNA product abundance [1]: 0.44

ACAGACGAAGGAGCCGCAAAGAAGTTATTATGGGATGAATAATCCCTCAATATAAATATCTCTCACTTATTTAAA
cleaved RNA product abundance [2]: 0.302 | cleaved RNA product abundance [1]: 0.407

ACAGACGAAGGAGCCGCAAAGAAGTTATTATGGGATGAATAATCCCTCAATATAATTATCTCTCACTTATTTAAA
cleaved RNA product abundance [1]: 0.294

ACAGACGAAGGAGCCGCAAAGAAGTTATTATGGGATGAATAATCCCTCAATATACATATCTCTCACTTATTTAAA
cleaved RNA product abundance [1]: 0.538

ACAGACGAAGGAGCCGCAAAGAAGTTATTATGGGATGAATAATCCCTCAATATAGATATCTCTCACTTATTTAAA
cleaved RNA product abundance [1]: 0.323

ACAGACGAAGGAGCCGCAAAGAAGTTATTATGGGATGAATAATCCCTCAATATATATATCTCTCACTTATTTAAA
cleaved RNA product abundance [1]: 0.503

ACAGACGAAGGAGCCGCAAAGAAGTTATTATGGGATGAATAATCCCTCAATATCAATATCTCTCACTTATTTAAA
cleaved RNA product abundance [1]: 0.0948

ACAGACGAAGGAGCCGCAAAGAAGTTATTATGGGATGAATAATCCCTCAATTTAAATATCTCTCACTTATTTAAA
cleaved RNA product abundance [1]: 0.169

ACAGACGAAGGAGCCGCAAAGAAGTTATTATGGGATGAATAATCCCTCATTATAAATATCTCTCACTTATTTAAA
cleaved RNA product abundance [1]: 0.528

ACAGACGAAGGAGCCGCAAAGAAGTTATTATGGGATGAATAATCCCTCCATATAAATATCTCTCACTTATTTAAA
cleaved RNA product abundance [2]: 0.361

ACAGACGAAGGAGCCGCAAAGAAGTTATTATGGGATGAATAATCCCTCTATATAAATATCTCTCACTTATTTAAA
cleaved RNA product abundance [1]: 0.223

ACAGACGAAGGAGCCGCAAAGAAGTTATTATGGGATGAATAATCCCTGAATATAAATATCTCTCACTTATTTAAA
cleaved RNA product abundance [1]: 0.663

ACAGACGAAGGAGCCGCAAAGAAGTTATTATGGGATGAATAATCCGTCAATATAAATATCTCTCACTTATTTAAA
cleaved RNA product abundance [1]: 0.279

ACAGACGAAGGAGCCGCAAAGAAGTTATTATGGGATGAATAATCCTTCAATATAAATATCTCTCACTTATTTAAA
cleaved RNA product abundance [2]: 0.315 | cleaved RNA product abundance [1]: 0.382

ACAGACGAAGGAGCCGCAAAGAAGTTATTATGGGATGAATAATCTCTCAATATAAATATCTCTCACTTATTTAAA
cleaved RNA product abundance [2]: 0.224 | cleaved RNA product abundance [1]: 0.285
